In US20250297255A1 (ARSENAL BIOSCIENCES, published 2025):

Molecular target: T1, Human TMPRSS4 (Transmembrane protease, serine 4), wild type full length (human, UniProt Q9NRS4 1-437)
T1 construct: Type II membrane protein over-expressed on HEK293T cells (also endogenous on H1975 and LUDLU-1 cells); also called TMPRSS4 WT; HEK293T-TMPRSS4
Assay: flow cytometry, monoclonal phage on HEK293T-TMPRSS4 cells;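 note: bound phage detected with a PE-labelled mouse anti-M13 monoclonal antibody, read by flow cytometry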

T1 sequence (Q9NRS4 whole entry): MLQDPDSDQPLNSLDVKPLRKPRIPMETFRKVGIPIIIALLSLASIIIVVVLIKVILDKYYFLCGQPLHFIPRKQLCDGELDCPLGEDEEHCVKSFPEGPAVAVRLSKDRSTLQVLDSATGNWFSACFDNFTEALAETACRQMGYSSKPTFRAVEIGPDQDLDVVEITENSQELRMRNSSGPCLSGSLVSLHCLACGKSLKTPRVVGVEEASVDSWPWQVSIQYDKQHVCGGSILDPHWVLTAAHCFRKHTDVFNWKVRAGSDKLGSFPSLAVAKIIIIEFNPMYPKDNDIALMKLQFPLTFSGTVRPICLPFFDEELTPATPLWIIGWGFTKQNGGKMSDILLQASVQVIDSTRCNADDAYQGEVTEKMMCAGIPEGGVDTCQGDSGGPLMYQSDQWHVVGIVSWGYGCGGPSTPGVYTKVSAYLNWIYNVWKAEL

Binder | binding result
TMPRSS4 Ab34 scFv (VH-VL) (scFv, on monoclonal phage in the screen) scFv: QVQLVQSGAEVKKPGASVKVSCKASGYTFTGYYIHWVRQAPGQGLEWMGWMNPHSGNTGYAQKFQGRVTMTRDTSTSTVYMELSSLRSEDTAVYYCAREGGRYSSGRLGYWGQGTLVTVSSGGGGSGGGGSGGGGSDIQMTQSPSSLSASVGDRVTITCRASQGISSWLAWYQQKPGKAPKLLIYAASTLQTGVPSRFSGSGSGTDFTLTISSLQPEDFATYYCQQSKSIPITFGGGTKVEIK | binds
TMPRSS4 Ab31 scFv (VH-VL) (scFv, on monoclonal phage in the screen) scFv: QVQLVQSGAEVKKPGSSVKVSCKASGYTFRGSGISWVRQAPGQGLEWMGIIYPADSETRYSPSFQGRVTITADESTSTAYMELSSLRSEDTAVYYCARESSSWDYFDYWGQGTLVTVSSGGGGSGGGGSGGGGSEIVMTQSPATLSVSPGERATLSCRASQSVRSYLAWYQQKPGQAPRLLIYGASTRATGIPARFSGSGSGTEFTLTISSLQSEDFAVYYCQQHGSLPLTFGQGTKVEIK | binds
TMPRSS4 Ab32 scFv (VH-VL) (scFv, on monoclonal phage in the screen) scFv: QVQLVQSGAEVKKPGSSVKVSCKASGGTFSSYAISWVRQAPGQGLEWMGRINPSGGSTSYAQKFQGRVTMTRDTSTSTVYMELSSLRSEDTAVYYCARGRYSSSSWGQGTLVTVSSGGGGSGGGGSGGGGSDIQMTQSPSSLSASVGDRVTITCRASQSISTYLNWYQQKPGKAPKLLIYAASSLQRGVPSRFSGSGSGTDFTLTISSLQPEDFATYYCQQSYTTPLTFGGGTKVEIK | binds
TMPRSS4 Ab36 scFv (VH-VL) (scFv, on monoclonal phage in the screen) scFv: EVQLLESGGGLVQPGGSLRLSCAASGFTFSSRAMSWVRQAPGKGLEWVSRINYDGSATTYADSVKGRFTISRDNSKNTLYLQMNSLRAEDTAVYYCARGITIFGVFDYWGQGTLVTVSSGGGGSGGGGSGGGGSDIQMTQSPSSLSASVGDRVTITCRASQSISTWLAWYQQKPGKAPKLLIYRASNLQSGVPSRFSGSGSGTDFTLTISSLQPEDFATYYCQQSYSTPLTFGGGTKVEIK | binds
TMPRSS4 Ab30 scFv (VH-VL) (scFv, on monoclonal phage in the screen) scFv: QVQLVQSGAEVKKPGASVKVSCKASGYTFTTYYMHWVRQAPGQGLEWMGWMNPNSGNTGYAQKFQGRVTMTRDTSTSTVYMELSSLRSEDTAVYYCARARTWLLSPFDYWGQGTLVTVSSGGGGSGGGGSGGGGSEIVMTQSPATLSVSPGERATLSCRASQSVGRYLAWYQQKPGQAPRLLIYGASTRATGIPARFSGSGSGTEFTLTISSLQSEDFAVYYCQHYDSSPMYTFGQGTKLEIK | binds
TMPRSS4 Ab33 scFv (VH-VL) (scFv, on monoclonal phage in the screen) scFv: QVQLVQSGAEVKKPGASVKVSCKASGYTFSNYYMHWVRQAPGQGLEWVGWMNPKSGNTGYAQKFQGRVTMTRDTSTSTVYMELSSLRSEDTAVYYCARGRTWIQSSLGYWGQGTLVTVSSGGGGSGGGGSGGGGSDIQMTQSPSSLSASVGDRVTITCRASQYISRWLAWYQQKPGKAPKLLIYGSSTLQSGVPSRFSGSGSGTDFTLTISSLQPEDFATYYCQQYYSTPFTFGPGTKLEIK | binds
TMPRSS4 Ab3 scFv (VH-VL) (scFv, on monoclonal phage in the screen) scFv: QVQLVQSGAEVKKPGSSVKVSCKASGYTFTSYDINWVRQAPGQGLEWMGGIIPIFGTTKFAQKFQGRVTITADESTSTAYMELSSLRSEDTAVYYCARDWYSSSWYNGDRGDWFDPWGQGTLVTVSSGGGGSGGGGSGGGGSDIVMTQSPLSLPVTPGEPASISCRSSGSLLHSNGYNYLDWYLQKPGQSPQLLIYAASSLQSGVPDRFSGSGSGTDFTLKISRVEAEDVGVYYCMQGTHWPGTFGQGTKVEIK | binds
TMPRSS4 Ab35 scFv (VH-VL) (scFv, on monoclonal phage in the screen) scFv: QVQLVQSGAEVKKPGASVKVSCKASGYTFTGYYMHWVRQAPGQGLEWMGKISAHSGETKYAQNVQGRVTMTRDTSTSTVYMELSSLRSEDTAVYYCARANYYGDYVNYYYGMDVWGQGTTVTVSSGGGGSGGGGSGGGGSDIQMTQSPSSLSASVGDRVTITCQASQDISNYLNWYQQKPGKAPKLLIYKASSLESGVPSRFSGSGSGTDFTLTISSLQPEDFATYYCQQTYTIPITFGQGTRLEIK | binds
